# Data as given in patent publication EP4707393A1, “DOUBLE-STRANDED SIRNA, CONJUGATE THEREOF AND USE THEREOF” (CMS Research & Development Pte. Ltd., priority 2023, dated 2024).
# pEC50: −log10 of the molar value.
# Key:
# [1] = Melting temperature (Tm) by UV absorption at 260 nm; format: physicochemical; conditions: phosphate buffer solution; average of at least two independent measurements
# Protocol: The Tm value was determined by recording the change in UV absorption at 260 nm of DNA/RNA in phosphate buffer solution as the temperature increased.
# Table 6 Melting temperature (Tm) test instrument parameters
# The melting temperature (Tm) was calculated from the first derivative of the smoothed heating curve, and the reported value was the average of at least two independent measurements. Table 7 Melting temperatures (Tm) of conjugates of the present disclosure
# [2] = system: human LPA gene (Genbank number: NM_005577.4); assay: Inhibitory activity against LPA mRNA, psiCHECK-2 dual-luciferase reporter vector in Huh7 cells; format: cell-based; conditions: Huh7 cells transfected with LPA_psiCHECK-2 plasmid, RNAiMAX transfection
# How it was run: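 Huh7 cells transfected with psiCHECK-2 carrying human LPA, then treated next day with compounds (3 concentrations) delivered by RNAiMAX. Dual-Glo readout of firefly and Renilla luciferase per well. Percent inhibition calculated from the reporter ratio relative to the RNAiMAX control.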
# LPA mRNA = assay: In vivo efficacy in LPA-HDI mouse model (liver LPA mRNA); parameters: species or system BALB/c mouse; conditions: 3 mg/kg single subcutaneous injection, Day 14, relative to PBS blank group, 4 mice per group
# Protocol: The knockdown effect of the test double-stranded siRNA conjugate on the target gene LPA upon entry into the mouse is evaluated by rapid high-pressure injection of the physiological saline containing recombinant plasmid pcDNA-LPA carrying the target gene via the tail vein.
# pcDNA-LPA plasmid, BALB/c mouse, PBS (phosphate buffer), and conjugates of the present invention.
# Six-week-old female BALB/c mice were ordered and acclimated/quarantined for three days upon arrival in the animal room.
# On Day 0, the mice were randomly grouped based on body weight data. After grouping, all mice were given a single administration via subcutaneous injection, with a dose volume of 10 mL/kg. Mice in Group 1 received PBS; mice in the other groups received the conjugates (dissolved in PBS).
# On Day 13 post-administration, all mice were injected with normal saline containing the pcDNA-LPA plasmid via the tail vein within 5 seconds. The injection volume (mL) = mouse body weight (g) × 8%. The amount of plasmid injected per mouse was 10 µg.
# On Day 14 post-administration, all groups of mice were euthanized by CO2 inhalation, and 2 liver samples were collected from each mouse. Liver samples were treated overnight with RNAlater at 4 °C, then RNAlater was removed, and stored at -80 °C for detection of LPA gene expression levels.
# hPBMCs = assay: Immunogenicity test in hPBMCs (IL-6 and TNF-α ELISA of supernatant); format: cell-based, human; conditions: donor 1 hPBMCs, 18-20 h
# How it was run: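 siRNA conjugates, three-fold serially diluted in water then 10-fold in 1640 medium (5.0% water final), were added in duplicate to PBMCs at 1.6 × 10^6/mL and incubated 18-20 h at 37 °C. TNF-α and IL-6 in supernatant were measured by ELISA; LPS served as positive control.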
Substance,Melting temperature Tm [1],pEC50 [2],% Downregulation of LPA mRNA (LPA mRNA),IL-6 (hPBMCs; 5 µg/mL),TNF alpha (hPBMCs; 5 µg/mL),IL-6 (hPBMCs; 15 µg/mL),TNF alpha (hPBMCs; 15 µg/mL),IL-6 (hPBMCs; 45 µg/mL),TNF alpha (hPBMCs; 45 µg/mL)
"Z54: siRNA conjugate: sense SEQ ID NO:49, ligand D01 at 3' end of sense strand, antisense SEQ ID NO:90 (sense CAGCCCCTTATTGTTATACGA; antisense NCGTATNACAATAAGGGGCNGTT; ligand D01 at sense 3' end; listed as RNA; modified_base 1: mod_base = OTHER; note = 2'-O-methylcytidine; modified_base 2: mod_base = OTHER; note = 2'-O-methyladenosine; modified_base 3: mod_base = OTHER; note = 2'-O-methylguanosine; modified_base 4..7: mod_base = OTHER; note = 2'-O-me; note = n is B33; note = 2'-fluorocytidine; modified_base 4: mod_base = OTHER; note = 2'-O-methyluridine;)",69.00 °C,,,,,,,,
"Z40: siRNA conjugate: sense SEQ ID NO:52, ligand D01 at 3' end of sense strand, antisense SEQ ID NO:78 (sense CCTGCCAAGCTTGGTCNTCTA; antisense TCTAGATGNCCAAGCTTGGCNGG; ligand D01 at sense 3' end; listed as RNA; modified_base 1..2: mod_base = OTHER; note = 2'-O-methylcytidine; modified_base 3: mod_base = OTHER; note = 2'-O-methyluridine; modified_base 4: mod_base = OTHER; note = 2'-O-methylguanosine; modified_base 5..6: mod_base = OTHER; note = 2'-O-m; modified_base 1: mod_base = OTHER; note = 2'-fluoroadenosine; modified_base 5: mod_base = OTHER; note = 2'-O-methyl)",,10.15,59.0%,1333.8 pg/mL,35.9 pg/mL,1266.6 pg/mL,32.3 pg/mL,1343.4 pg/mL,32.7 pg/mL
"Z56: siRNA conjugate: sense SEQ ID NO:43, ligand D01 at 3' end of sense strand, antisense SEQ ID NO:92 (sense CAGCCCCTTATTGTTANACGA; antisense TCTCGTATAACAATAAGGGGCTG; ligand D01 at sense 3' end; listed as RNA; modified_base 1: mod_base = OTHER; note = 2'-O-methylcytidine; modified_base 2: mod_base = OTHER; note = 2'-O-methyladenosine; modified_base 3: mod_base = OTHER; note = 2'-O-methylguanosine; modified_base 4..7: mod_base = OTHER; note = 2'-O-me; note = 2'-O-methyluridine; modified_base 4: mod_base = OTHER; note = 2'-fluorocytidine; modified_base 5: mod_base = OTHER; note = 2'-O-methylg)",77.25 °C,,,,,,,,
"Z43: siRNA conjugate: sense SEQ ID NO:49, ligand D01 at 3' end of sense strand, antisense SEQ ID NO:81 (sense CAGCCCCTTATTGTTATACGA; antisense NCGTATNACAATAAGGGGCNGTT; ligand D01 at sense 3' end; listed as RNA; modified_base 1: mod_base = OTHER; note = 2'-O-methylcytidine; modified_base 2: mod_base = OTHER; note = 2'-O-methyladenosine; modified_base 3: mod_base = OTHER; note = 2'-O-methylguanosine; modified_base 4..7: mod_base = OTHER; note = 2'-O-me; note = n is B30; note = 2'-deoxycytidine; modified_base 4: mod_base = OTHER; note = 2'-O-methyluridine; m)",,10.05,84.5%,1270.9 pg/mL,35.4 pg/mL,1339.1 pg/mL,36.9 pg/mL,1314.4 pg/mL,32.2 pg/mL
